Measured values: US12312397B2, “Anti-O2 antibodies and uses thereof” (priority 2016, dated 2025)

How the values were obtained:
[1] = tested on: antibiotic resistant Klebsiella pneumoniae strains; format: in vivo
Protocol: C57/BL6 mice were obtained from Jackson Laboratories and maintained in a special pathogen-free facility. All animal experiments were conducted in accordance with Institutional Animal Care and Use Committee (IACUC) protocol and guidance. K. pneumoniae strains were grown on agar plates overnight and diluted in saline at proper concentration. The inoculum titer was determined by plating a serial dilution of bacteria onto agar plates prior to and post challenge. In acute pneumonia models, C57/BL6 mice were inoculated with 1e4 to 2e8 colony-forming units (CFU) of K. pneumoniae clinical isolates in 50 μl saline intranasally. Anti-K pneumoniae monoclonal antibodies (mAbs) and human IgG1 control antibodies were given 1-24 hour post bacterial challenge (therapeutic dosing). Mouse survival was monitored daily until up to day 8. Survival data of representative experiments were plotted in Graphpad Prism software.
The lethal pneumonia model as described in Example 9 was used to assess the activity of anti-O2 LPS antibodies in combination with an antibiotic. Both antibiotic and antibody were administered 1 hour after bacterial infection.
50 mg/kg of meropenem and 2 mg/kg of antibody were administered at 1, 2, 4, 6, and 24 hour after bacterial infection, as described for the antibody and antibiotic combination studies in Examples 9 and 10.

[2] = tested on: O2 LPS; assay: ELISA binding to O2 LPS; set-up: species or system Klebsiella pneumoniae; details: secondary screening, ELISA
Summary of the method: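 Serial dilutions of monoclonal antibodies bound to LPS-coated plates for 1 h at room temperature, detected with alkaline phosphatase-conjugated anti-human IgG (1 h) and pNPP substrate (30 min). Absorbance read at 405 nm; EC50 values derived from binding curves.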

[3] = tested on: O2 LPS activation of NF-κB in RAW264.7-lux cells; assay: LPS neutralization assay (NF-κB luciferase, RAW264.7-lux), O2 LPS; format: cell-based, murine; set-up: key to LPS Neut O2: +++: Strongly positive activity; +: Positive activity; +/−: Somewhat positive depending upon the test conditions
Summary of the method: (§1)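 Serially diluted mAbs (human IgG1) pre-mixed 1:1 with LPS at 4 °C for 1 hr, then diluted 1:10 onto RAW264.7-lux cells carrying an NF-κB-driven firefly luciferase; 2.5 h at 37 °C. Luminescence read; % inhibition relative to no-antibody and negative-control mAb wells.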

[4] = tested on: O1 LPS activation of NF-κB in RAW264.7-lux cells; assay: LPS neutralization assay (NF-κB luciferase, RAW264.7-lux), O1 LPS; format: cell-based, murine; details: secondary screening
Summary of the method: as §1

[5] = tested on: K. pneumoniae 8570ΔcpsBLux (O2); assay: Opsonophagocytic killing (OPK) assay, O2 capsule mutant; format: cell-based, Klebsiella pneumoniae; set-up: key to D Capsule OPK O2: +++: Strongly positive activity; +: Positive activity; +/−: Somewhat positive depending upon the test conditions; details: capsule mutant strain 8570ΔcpsB lux (O2)
Summary of the method: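 Luminescent capsule-deficient K. pneumoniae strains were mixed with DMF-differentiated HL-60 cells, 1:10 baby rabbit serum and anti-O2 LPS mAbs (2 ng–2.5 μg/mL), then shaken for 2 h at 37 °C. Killing % came from luminescence (RLU) against no-antibody and negative-control mAb wells, with >40% scored as positive.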

B1: KPN179: Class III anti-O2 antigen human mAb; VH SEQ ID NO: 53, VL SEQ ID NO: 54 (antibody, V domains shown)
VH: EVQVVESGGGLVKPGGSLRLSCAASGFTFNNAWMNWVRQAPGKGLEWVGRIKRKADGETTDYPASVKGRFTVSRDDSKNTIYLQMNSLKTEDTAIYYCTTRIVTTNDYWGQGTLVTVSS
VL: QSALTQPPSVSGSPGQSVTISCTGTSSDVGYYDYVSWYQQHHPGKAPKHMIYDVNKRPSGVPDRFSGSKSGNTASLTISGLQAEDEADYYCCSYAGGDTFVFGTGTKVTVL
modifications: Description of Artificial Sequence: SyntheticKPN179 VH polypeptide; Description of Artificial Sequence: SyntheticKPN179 VL polypeptide
time post infection up to which combination with meropenem protects better than control mAb and meropenem ([1]; 50 mg/kg meropenem + 2 mg/kg antibody given 1, 2, 4, 6, 24 hour after infection, mice): up to 4 hours
protection of combination with meropenem compared to antibody or antibiotic monotherapy ([1]; meropenem 50 mpk + antibody 0.2 mpk, both 1 hour after infection, mice): significantly improved protection
synergy with meropenem in lethal pneumonia model ([1]; sub-therapeutic antibody dose, % survival of mice): strong synergy
binding to LPS-O2 [2]: bind
LPS Neut O2 ([3]; Table 7 summary): +/−
neutralization of LPS-O2 ([3]; secondary screening): did not show LPS-neutralizing activity
neutralization of LPS-O1 [4]: did not show LPS-neutralizing activity
D Capsule OPK O2 [5]: +++
